In PMC6039445 (2018):

Tests used:
Assay in all cases: BLI
[1] = target: HA of A/Brisbane/10/2007 (H3N2) virus (influenza A virus A/Brisbane/10/2007 …)
[2] = target: A/Panama/2007/1999 H3N2 HA, soluble trimeric (influenza A virus A/Panama/2007/1999 …)
[3] = target: A/Minnesota/11/2010 H3N2v HA, soluble, biotinylated (wild type) (influenza A virus A/Minnesota/11/2010 …)

Row | Binder | Kd [1] [nM] | Kd [2] [nM] | Kd [3] [nM]
1 | H3v-47 Fab (Fab, V domains shown) VH: QVQLVQSGAEVKKPGSSVRVSCKASGDTFSSYSITWVRQAPGHGLQWMGGIFPIFGSTNYAQKFDDRLTITTDDSSRTVYMELTSLRLEDTAVYYCARGASKVEPAAPAYSDAFDMWGQGTLVTVSS VL: DIVMTQSPGTLSLSPGERATLSCRTSQGVSSSYLAWYQQKPGQAPRLLISGSSSRATGIPDRFSGSGSGRDFTLTISRLEPEDSAVYYCQQYATSPTFGQGTRVEIK | < 5 | < 5 | 
2 | H3v-47 IgG (antibody, V domains shown) VH: QVQLVQSGAEVKKPGSSVRVSCKASGDTFSSYSITWVRQAPGHGLQWMGGIFPIFGSTNYAQKFDDRLTITTDDSSRTVYMELTSLRLEDTAVYYCARGASKVEPAAPAYSDAFDMWGQGTLVTVSS VL: DIVMTQSPGTLSLSPGERATLSCRTSQGVSSSYLAWYQQKPGQAPRLLISGSSSRATGIPDRFSGSGSGRDFTLTISRLEPEDSAVYYCQQYATSPTFGQGTRVEIK |  |  | < 0.001
